# Test results from the nanobody polyreactivity screen of Harvey et al. (2022).
# Test: yeast display, Sf9 membrane polyspecificity reagent, FACS + sequencing; frameworks hold sequencing errors
# Procedure, shortened: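 In a synthetic yeast display library (Saccharomyces cerevisiae BJ5465), nanobody expression was induced with galactose for 36–48 hours. FACS gates were set low and high (top ~1%) using anti-HA fluorescence for expression and streptavidin fluorescence for binding of the Sf9 membrane reagent. Each polyreactivity label is drawn from the gate of origin.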
row,Sequence,polyreactivity (PSR sort gate)
1,QVQLVESGGGLVQAGGSLRLSCAASGRIFTGNAMGWNRQAPGKERELVAAISASGSSTYYADSVKGRFTISRDNAKNTVYLQMNRLKPDDTAVYYCAADGWYGYYYWGQGTQVTVSS,high polyreactivity
2,QVQLVESGGGLVQAGGSLRLSCAASGRIFTGNAMGWSRQAPGKERELVAAISASGSSSYYADSVKGRFTISRDNAKNTVYLQMNSLNPEDTAVYYCAAEGWYCYYYWGQGTQVTVSS,high polyreactivity
3,QVQLVESGGGLVQAGGSLRLSCAASGRIFTGNAMGWYRQAPGKERELVAAITGRGGNTYYADSVKGRFTISRDNAKNTVYLQMNSLKPEDTAVYYCAKVFFHTPIVPEFEYWGQGTQVTVSS,low polyreactivity
4,QVQLVESGGGLVQAGGSLRLSCAASGRIFTGNAMGWYRQAPGKERELVASITYNGGRTYYADSVKGRFTISRDKAKNTVYLPMNRLKPEDTAVYYCNAGDYGFGYEYWGQGTQVTVSS,low polyreactivity
5,QVQLVESGGGLVQAGGSLRLSCAASGRIFTGYAMGWYRQAPGKEREFVAAITGRGGSTYYADSVKGRFTISRDNAKNTVYLLMNSLKPEDTAVYYCNALPRSPWYYRGDYWGQGTQVTVSS,high polyreactivity
6,QVQLVESGGGLVQAGGSLRLSCAASGRIFTHNAMGWYIQAPGKERELVAAITSGGRTTYADSVKGRFTISRENAKNTVYLQMISLKPVDTAVYYCAADDLLDYDYWGQGTQVTVSS,low polyreactivity
7,QVQLVESGGGLVQAGGSLRLSCAASGRIFTIYAMGWSRQAPGKERELVATISRRGGSTYYADSVKGRFTISRDNAKNTVYLKMNSLKPEDSAVYYFAADSVITWWAYYYWGQGTQVTVSS,high polyreactivity
8,QVQLVESGGGLVQAGGSLRLSCAASGRIFTIYAMGWYRQAPGKERELVARITRGTSTYADSVKGRFTISRDNAKNTVYLQMNSLKPEDTAVYYCAADPTDTSLGDYWGQGTQVTVSS,high polyreactivity
9,QVQLVESGGGLVQAGGSLRLSCAASGRIFTLYAMGWYRQAPGKERELVAAISYGGGGTYYADSVKGRFTISRDNAKNTVYLQMNRLKPEDSAVYFCATDDPLSQINEQGMDYWGQGTQVTVSS,low polyreactivity
10,QVQLVESGGGLVQAGGSLRLSCAASGRIFTNNAMGWYRQAPGKERELVAAITRGGTTNYADSVKGRFTISRDNAKNTVYLHMNSLKPEDTAVYFCARAGAHPWWSRSTMYYWGQGTQVTVSS,low polyreactivity
11,QVQLVESGGGLVQAGGSLRLSCAASGRIFTNYAMGWYREAPGKERELVAAINYSGGNTYYADSVKGRFTISRDNAKNTVYLQMNSLIPEDTAVYYCNAPILPRYRRYDYWGQGTQVTVSS,low polyreactivity
12,QVQLVESGGGLVQAGGSLRLSCAASGRIFTNYAMGWYRQAPGKERELVAAINWDGGSTYYADSVKGRFTISRDNAKNTVYLQMNSLKPEDTAVYYCAAQGGLSEFDYWGQGTQVTVSS,low polyreactivity
13,QVQLVESGGGLVQAGGSLRLSCAASGRIFTQNAMGWYRQAPGKERELVAAINYSGGRTYYADSVKGRFTISRDNAKNTVYLQMNSLKPEDTAVYYCAAEWYTRFYISYGYWGQGTQVTVSS,high polyreactivity
14,QVQLVESGGGLVQAGGSLRLSCAASGRIFTRYAMGWYRHAPGKERELVAAITASGGRTYYADSVKGRFTISRDNAKNTVYLQMNSLKPEDTAVYYCAATYHRYYETQDSYDYWGQGTQVTVSS,high polyreactivity
15,QVQLVESGGGLVQAGGSLRLSCAASGRIFTRYAMGWYRQAPGKERELVAAIDRGGSTYYADSVKGRFTISRDNAKNTVYLQMNSLKPEDTAVYYCAARIKAWGLEFYYWGQGTQVTVSS,high polyreactivity
16,QVQLVESGGGLVQAGGSLRLSCAASGRIFTRYAMGWYRQAPGKERELVAAISRGGARTYYADSVKGRFTISRDNAKNTVYLQMNSLKPEDTAVYYCARQRVKTDRISGYDYWGQGTQVTVSS,high polyreactivity
17,QVQLVESGGGLVQAGGSLRLSCAASGRIFTRYAMGWYRQAPGKERELVAVITRSGGSTYYADSVKGRFTISRDNAKNTVYLQMTSLKPEDTAVYYCAAKYYGEMYYWGQGTQVTVSS,low polyreactivity
18,QVQLVESGGGLVQAGGSLRLSCAASGRIFTRYVMGWYRPAPGKERELVAGINSGGRTNYADSVKGRFTISRDNAKNTVYLQMNSLKQVDTAVYYCAAGKGRPVGGRAYYYWGHGTQVTVSS,high polyreactivity
19,QVQLVESGGGLVQAGGSLRLSCAASGRIFTSNAMGWYRQAPGKERELVASITSSSSTNYADSVKGRFTLSRDNAKNTVYLQMNSLKPEDTAVYYCAAERVWPYGHDYWGQGTQVTVSS,low polyreactivity
20,QVQLVESGGGLVQAGGSLRLSCAASGRIFTSYAMGWYRQAPGKERELVASITSGGRTDYADSVKGRFTISRDNAKNTVYVQMNSLKPEDTAVYYCNVGTRRALYYPYRPGRYDYWGQGTQVTVSS,low polyreactivity
21,QVQLVESGGGLVQAGGSLRLSCAASGRIFTSYVMGWYRQAPGKERELVAAITRTGGSTYYADSVKGRFTISRDNAKNTVYLQMNSLKPEDTAVYYCNALTRRQKGGEGGGYWGQGTQVTVSS,high polyreactivity

row,Sequence,polyreactivity (PSR sort gate)
1,QVQLVESGGGLVQAGGSLRLSCAASGRIFTTNVMGWYRQAPGKERELVAAISWSGGNTYYADSVKGRFTISRDNAKNTVYLQMNSLKPEDTAVYYCNAVGTIREGDSWGQGTQVTVSS,low polyreactivity
2,QVQLVESGGGLVQAGGSLRLSCAASGRIFTYNAMGWYRQAPGKERELVASINLDGDSTYYADSVKGRFTISRDNAKKTVYLQMNSLKTEETAVYYCAVPGATSYFAYDSWGQGTQVTVSS,low polyreactivity
3,QVQLVESGGGLVQAGGSLRLSCAASGRIFTYNTMGWYRQAPGKERELVAAIRTGGSTNYADSVKGRFTISRDNAKNTVYLQMNSLKPEDTAVYYCNTVRHSSSVYWYDYWGQGTQVTVSS,low polyreactivity
4,QVQLVESGGGLVQAGGSLRLSCAASGRIFTYNTMGWYRQAPGKERELVAAISGSGGITYYADSVKGRFTISRDNAKNTVYLQMNSLKPEDTAVYYCNTVPLYVSRYPYDYWGQGTQVTVSS,low polyreactivity
5,QVQLVESGGGLVQAGGSLRLSCAASGRIFTYNTMGWYRQAPGKERELVAAITSGGRTYYADSVKGRFTISRDNAKNTVYLQMNSLKPEDTAVYYCAAGRSRFVTRYDYWGQGTQVTVSS,high polyreactivity
6,QVQLVESGGGLVQAGGSLRLSCAASGRIFTYNTMGWYRQSPGKEREFVASITYSGSSTYYADSVKGRFTISRDNAKNTVYLQMNSLKPEDTAVYYCATRYGYSDGDYWGHGTQVTVSS,low polyreactivity
7,QVQLVESGGGLVQAGGSLRLSCAASGRIFTYYAMGWFRQAPGKERELVAAISFRGSSTYYADSVKGRVTLSRDNAKNTVYLQRNSLKPEDTAVYYCAAERIARPTFDYWGQGTQVTVSS,low polyreactivity
8,QVQLVESGGGLVQAGGSLRLSCAASGRIFTYYGMGWYRQAPGKERELVAAISWSGGSTYYADSVKGRFTISRDNAKNTVYLQMNSLKPEDTAVYYCNAASRYGGDYWGQGTQVTVSS,high polyreactivity
9,QVQLVESGGGLVQAGGSLRLSCAASGRIFTYYTMGGYRQAPGKERELVATINSSGGSTYYADSVKGRFTISRDNAKNTVYLQMNRLKPEDTAVYYCNDAYKSQVRYRRYNYWGQGTQVTVSS,high polyreactivity
10,QVQLVESGGGLVQAGGSLRLSCAASGRIFVDNAMGWYRQAPGKERELVAAITRGGSTYADSVKGRFTISRDNAQNTVYLQMISLKPEDTAVYYCAADLWSVPFTVYTFGIFYYWGQGTQVTVSS,low polyreactivity
11,QVQLVESGGGLVQAGGSLRLSCAASGRIFVDYAMGWYRQAPGKERELVAAITRSGDRTYYADSVKGRFTISRDNAKNTVYLQMNSLKPEDTAVYYCATDYPGYDWGQGTQVTVSS,low polyreactivity
12,QVQLVESGGGLVQAGGSLRLSCAASGRIFVEYAMGWYRQAPGKERELVAAINSGGSTNYADSVKGRFTISRDNAKNTVYLQMNSLKPEDTAVYYCNKDTLVYGYVQDYEYWGQGTQVTVSS,low polyreactivity
13,QVQLVESGGGLVQAGGSLRLSCAASGRIFVGNTMGWYRQAPGKDRELVAAISWRGRTSYADSVKGRFTISRDNAKNTVYLQMNSLKPEDTAVYYCNAEHAGASRYYYIANWMDYWGQGTQVTVSS,low polyreactivity
14,QVQLVESGGGLVQAGGSLRLSCAASGRIFVGYAMGLYRQAPGKEREFVATITFSGSSTYYADSVKGRFTISRDNAKNTVYIQMNSLKPEDTAVYYCAVTLEDYTYVYWGQGTQVTVSS,low polyreactivity
15,QVQLVESGGGLVQAGGSLRLSCAASGRIFVGYAMGWYRQAPGKERELVAAINRSGSSKYYADSVKGRFTISRDNAKNTVYLQMNSLKTEDTAVYYCNARSGNRYGPRYDYWGQGTQVTVSS,high polyreactivity
16,QVQLVESGGGLVQAGGSLRLSCAASGRIFVGYAMGWYRQAPGKERELVAAINRSGSSTYYADSVKGRFTISRDNAKNTVYLQMNSLKPEDSAVYYCNARAPSYYRYRASSAYDYWGQGTQVTVSS,high polyreactivity
17,QVQLVESGGGLVQAGGSLRLSCAASGRIFVGYAMGWYRQAPGKERELVAAISSRGGSTYYADSVKGRFTISRDNAKNTVYLQMNSLKPEDTAVYYCAKVRTYRYYDGGDYWGQGTQVTVSS,high polyreactivity
18,QVQLVESGGGLVQAGGSLRLSCAASGRIFVHNSMGWYRQAPGKERELVAAISSCGRTYYADSVKGRFTISRDNAKNTVYFQMNSLKPEDTAVYYCNAGRTNRAGRRWPMDYWGQGTHVTVSS,high polyreactivity
19,QVQLVESGGGLVQAGGSLRLSCAASGRIFVHYAMGWYRQAPGKERELVAAITSGSSTNYADSVKGRFTISRDNAKNTVYLQMNSLKPEDTAVYYCAADYSVHLVRDRWFDYWGQGTQVTVSS,low polyreactivity
20,QVQLVESGGGLVQAGGSLRLSCAASGRIFVINAMGWYRQAPGKERELVADITWSGGSTYADSVKGRFTISRDNAKNTVYLLMNSLNPADTAVSYCAAVYLRVDRYLQVYRYDYWGQGTQVTVSS,high polyreactivity
